Measured values: patent US20160279215A1, “NOVEL PEPTIDES AND COMBINATION OF PEPTIDES FOR USE IN IMMUNOTHERAPY AGAINST VARIOUS TUMORS” (immatics biotechnologies GmbH, priority 2015, published 2016)

What follows are substances tested against T1, HLA-A*02:01 (Homo sapiens, UniProt P04439, D140Y/D185E/D98H/E176V/E277Q/G131W/G231S/I119V/I121R/I166T/I218V/L300P/L318F/N151K/N90K/P208A/P217A/Q86G/Q94H/R138H/R169H/T345S) (assay: MHC binding assay: UV-ligand exchange with β2m ELISA (peptide exchange yield)). Details: binding to HLA-A*02:01 evaluated by peptide exchange yield (UV-ligand exchange, β2m ELISA).
T1 construct: made in house
Description: Candidate peptides for T cell based therapies according to the present invention were further tested for their MHC binding capacity (affinity). The individual peptide-MHC complexes were produced by UV-ligand exchange, where a UV-sensitive peptide is cleaved upon UV-irradiation, and exchanged with the peptide of interest as analyzed. Only peptide candidates that can effectively bind and stabilize the peptide-receptive MHC molecules prevent dissociation of the MHC complexes. To determine the yield of the exchange reaction, an ELISA was performed based on the detection of the light chain (β2m) of stabilized MHC complexes. The assay was performed as generally described in Rodenko et al. (Rodenko et al., 2006).
96 well MAXISorp plates (NUNC) were coated over night with 2 ug/ml streptavidin in PBS at room temperature, washed 4× and blocked for 1 h at 37° C. in 2% BSA containing blocking buffer. Refolded HLA-A*02:01/MLA-001 monomers served as standards, covering the range of 15-500 ng/ml. Peptide-MHC monomers of the UV-exchange reaction were diluted 100 fold in blocking buffer. Samples were incubated for 1 h at 37° C., washed four times, incubated with 2 ug/ml HRP conjugated anti-β2m for 1 h at 37° C., washed again and detected with TMB solution that is stopped with […]. Absorption was measured at 450 nm. Candidate peptides that show a high exchange yield (preferably higher than 50%, most preferred higher than 75%) are generally preferred for a generation and production of antibodies or fragments thereof, and/or T cell receptors or fragments thereof, as they show sufficient avidity to the MHC molecules and prevent dissociation of the MHC complexes.

Row | Peptide exchange | Substance
1 | ++++ (≧75% = ++++) | 1 (KLQEKIQEL; listed as Homo sapiens) [compound 1]
2 | +++ (≧50 = +++) | 3 (RVIDDSLVVGV; listed as Homo sapiens) [compound 3]
3 | +++ (≧50 = +++) | 5 (GLVDIMVHL; listed as Homo sapiens) [compound 5]
4 | ++++ (≧75% = ++++) | 6 (FLNAIETAL; listed as Homo sapiens) [compound 6]
5 | +++ (≧50 = +++) | 10 (QLIEKNWLL; listed as Homo sapiens) [compound 10]
6 | +++ (≧50 = +++) | 12 (RLLDPKTIFL; listed as Homo sapiens) [compound 12]
7 | +++ (≧50 = +++) | 13 (RLHDENILL; listed as Homo sapiens) [compound 13]
8 | +++ (≧50 = +++) | 16 (SLADLSLLL; listed as Homo sapiens) [compound 16]
9 | ++ (≧20% = ++) | 18 (KTASINQNV; listed as Homo sapiens) [compound 18]
10 | ++ (≧20% = ++) | 19 (KVFELDLVTL; listed as Homo sapiens) [compound 19]
11 | ++ (≧20% = ++) | 20 (ALVEKGEFAL; listed as Homo sapiens) [compound 20]
12 | +++ (≧50 = +++) | 21 (YLMDDFSSL; listed as Homo sapiens) [compound 21]
13 | +++ (≧50 = +++) | 22 (LMYPYIYHV; listed as Homo sapiens) [compound 22]
14 | +++ (≧50 = +++) | 23 (ALLSPLSLA; listed as Homo sapiens) [compound 23]
15 | +++ (≧50 = +++) | 24 (KVWSDVTPL; listed as Homo sapiens) [compound 24]
16 | +++ (≧50 = +++) | 25 (LLWGHPRVALA; listed as Homo sapiens) [compound 25]
17 | +++ (≧50 = +++) | 26 (VLDGKVAVV; listed as Homo sapiens) [compound 26]
18 | ++ (≧20% = ++) | 28 (IKVTDPQLLEL; listed as Homo sapiens) [compound 28]
19 | +++ (≧50 = +++) | 30 (IITEVITRL; listed as Homo sapiens) [compound 30]
20 | +++ (≧50 = +++) | 31 (GLLETTGLLAT; listed as Homo sapiens) [compound 31]
21 | ++ (≧20% = ++) | 33 (TLDRNSLYV; listed as Homo sapiens) [compound 33]

Row | Peptide exchange | Substance
22 | +++ (≧50 = +++) | 34 (TLNTLDINL; listed as Homo sapiens) [compound 34]
23 | +++ (≧50 = +++) | 36 (TVLQELINV; listed as Homo sapiens) [compound 36]
24 | ++ (≧20% = ++) | 37 (QIVELIEKI; listed as Homo sapiens) [compound 37]
25 | ++ (≧20% = ++) | 38 (VLQQESNFL; listed as Homo sapiens) [compound 38]
26 | +++ (≧50 = +++) | 39 (YLEDGFAYV; listed as Homo sapiens) [compound 39]
27 | +++ (≧50 = +++) | 40 (KIWEELSVLEV; listed as Homo sapiens) [compound 40]
28 | +++ (≧50 = +++) | 41 (IVTEIISEI; listed as Homo sapiens) [compound 41]
29 | ++ (≧20% = ++) | 42 (KQMSISTGL; listed as Homo sapiens) [compound 42]
30 | +++ (≧50 = +++) | 44 (AVFNLVHVV; listed as Homo sapiens) [compound 44]
31 | +++ (≧50 = +++) | 45 (FLPVSVVYV; listed as Homo sapiens) [compound 45]
32 | +++ (≧50 = +++) | 47 (GLNGFNVLL; listed as Homo sapiens) [compound 47]
33 | ++ (≧20% = ++) | 49 (KLIGNIHGNEV; listed as Homo sapiens) [compound 49]
34 | ++ (≧20% = ++) | 51 (LDSEALLTL; listed as Homo sapiens) [compound 51]
35 | ++ (≧20% = ++) | 52 (TIGIPFPNV; listed as Homo sapiens) [compound 52]
36 | + (≧10% = +) | 53 (AQHLSTLLL; listed as Homo sapiens) [compound 53]
37 | +++ (≧50 = +++) | 54 (YLVPGLVAA; listed as Homo sapiens) [compound 54]
38 | +++ (≧50 = +++) | 55 (HLFDKIIKI; listed as Homo sapiens) [compound 55]
39 | ++ (≧20% = ++) | 57 (TLYPGRFDYV; listed as Homo sapiens) [compound 57]
40 | +++ (≧50 = +++) | 58 (HLLGEGAFAQV; listed as Homo sapiens) [compound 58]
41 | +++ (≧50 = +++) | 59 (ALADGIKSFLL; listed as Homo sapiens) [compound 59]
42 | +++ (≧50 = +++) | 60 (YLFSQGLQGL; listed as Homo sapiens) [compound 60]

Row | Peptide exchange | Substance
43 | +++ (≧50 = +++) | 61 (ALYPKEITL; listed as Homo sapiens) [compound 61]
44 | +++ (≧50 = +++) | 62 (SLVENIHVL; listed as Homo sapiens) [compound 62]
45 | +++ (≧50 = +++) | 63 (KLLPMVIQL; listed as Homo sapiens) [compound 63]
46 | ++ (≧20% = ++) | 64 (SLYAGSNNQV; listed as Homo sapiens) [compound 64]
47 | ++ (≧20% = ++) | 65 (SLSEKSPEV; listed as Homo sapiens) [compound 65]
48 | +++ (≧50 = +++) | 67 (FLIENLLAA; listed as Homo sapiens) [compound 67]
49 | +++ (≧50 = +++) | 68 (QLMNLIRSV; listed as Homo sapiens) [compound 68]
50 | ++ (≧20% = ++) | 69 (LKVLKADVVL; listed as Homo sapiens) [compound 69]
51 | ++ (≧20% = ++) | 70 (GLTEKTVLV; listed as Homo sapiens) [compound 70]
52 | ++ (≧20% = ++) | 71 (HMSGKLTNV; listed as Homo sapiens) [compound 71]
53 | ++ (≧20% = ++) | 72 (VLSTRVTNV; listed as Homo sapiens) [compound 72]
54 | ++ (≧20% = ++) | 74 (GLAFLPASV; listed as Homo sapiens) [compound 74]
55 | +++ (≧50 = +++) | 75 (ALLDGALQL; listed as Homo sapiens) [compound 75]
56 | +++ (≧50 = +++) | 76 (FTAEFLEKV; listed as Homo sapiens) [compound 76]
57 | ++ (≧20% = ++) | 79 (TVLEEIGNRV; listed as Homo sapiens) [compound 79]
58 | +++ (≧50 = +++) | 80 (VLTGQVHEL; listed as Homo sapiens) [compound 80]
59 | ++ (≧20% = ++) | 81 (ILAEEPIYI; listed as Homo sapiens) [compound 81]
60 | +++ (≧50 = +++) | 82 (ILAEEPIYIRV; listed as Homo sapiens) [compound 82]
61 | ++ (≧20% = ++) | 83 (GLLENSPHL; listed as Homo sapiens) [compound 83]
